Tests used:
[1] = system: editable stop codons; assay: Transfection of in vitro transcribed iADAR mRNA circuits, flow cytometry (mNeonGreen positive cells); type: cell-based, human; conditions: 100 ng mRNA; positive = greater than top 1% of non-transfected cells; ~48 hours
Experimental: In this case, the dADAR and ADAR constructs serve as negative and positive controls respectively. For the BAD(V) construct, cells only express mNeonGreen if A-1331852 is present during the transfection (see e.g., FIG. 61B).
To test this, the 3′ end of the plasmid was subsequently digested using Pmel, a DNA clean-up was performed, ARCA-capped mRNA was transcribed with T7 polymerase, the remaining DNA were digested with DNAse I, and a poly-A tail was added with E. coli Poly(A) Polymerase (all reagents and protocols from NEW ENGLAND BIO's HiScribe® T7 ARCA mRNA Kit (with tailing)). 70,000 HEK293FT cells were then transfected in suspension with 100 ng of each mRNA construct using Lipofectamine™ MessengerMAX™ Transfection Reagent. Cells were also treated with either DMSO or 1 μM of A-1331852. ˜48 hours after transfection, cells were analyzed by flow cytometry. mNeonGreen positive cells were determined as greater than the top 1% of gated non-transfected HEK cells (NT).

[2] = molecular target: NS3a-genotype 1b (Hepatitis C virus genotype 1b, UniProt P26662); conditions: disrupted by NS3a-targeting drugs; read-out: affinity of basal complex; cited from earlier work
[3] = system: 4×UAG MS2 reporter; assay: 4×UAG MS2 reporter co-transfected with iADAR variants, flow cytometry; type: cell-based, human; conditions: 48 hours, n=3
Experimental: HEK293FT cells were co-transfected with the dual-input iADAR, the 4×UAG-MS2 reporter, and either EGFP(R96M) or EGFP(R96M)-AlfaTag on day 0. At the time of transfection, 500 nM of A-1331852 or DMSO was added to their respective conditions. 48 hours after transfection, cells were lifted and run via flow cytometry. The median mCherry to mNeonGreen ratio was computed for transfected cells were gated by BFP expression and mCherry expression. The experiment was then analyzed via one-way ANOVA (n=3 transfected cell populations per condition).
HEK293FT cells were co-transfected with the 4×UAG MS2 reporter and either an MCP-ADAR containing a peptide insertion at the 5′ RNA binding site (see e.g., FIG. 34b, Pep), grazoprevir iADAR (Pep-NS3) or a mutant version of the iADAR (Pep-NS3 (K690R)). At the time of transfection, 3 μM of DMSO or grazoprevir was added. 48 hours after transfection, cells were lifted and run via flow cytometry. […] The experiment was then analyzed via two-way ANOVA (n=3 transfected cell populations per condition).
To test this, LINC-ADAR constructs were created with WT, L699G, or F697Y mutations (see e.g., FIG. 35b) and HEK293FT cells were co-transfected with them and the 4×UAG-MS2 reporter in the presence of 2 μM grazoprevir or DMSO vehicle. 48 hours after transfection and drug treatment, cells were lifted and analyzed by flow cytometry. […]

**Q.** Which “population of mNeonGreen positive cells” value [1] does the source give for “MCP_ADAR2-DD(E396A & E488Q)_mCherry_FLAG_P2A_T2A_loop(UAG-UAG)_MS2(C)_HaloTag_loop(UAG-UAG)_MS2(C)_P2A_T2A HA_mNeonGreen(M10K) [dADAR mRNA]” here?
**A.** insignificant population

**Q.** With “apo NS3a reader peptide, SEQ ID NO: 261, GELDELVYLLDGPGYDPIHSD [ANR]” as the molecule, how does the Kd [2] read?
**A.** 10 nM

**Q.** With “MCP_ADAR2-DD(E488Q)_mCherry_FLAG_P2A_T2A_loop(UAG-UAG)_MS2(C)_HaloTag_loop(UAG-UAG)_MS2(C)_P2A_T2A_HA_mNeonGreen(M10K) [ADAR mRNA]” as the molecule, how does the “population of mNeonGreen positive cells” value [1] read?
**A.** significant population of mNeonGreen positive cells

B1: dual-input iADAR: N-terminal BAD, ALFA-PE at 5' RNA binding site, ADAR2-DD (F697Y), tandem AlfaNb and Bcl-xL at C-terminus (protein)
chain: MASNFTQFVLVDNGGTGDVTVAPSNFANGIAEWISSNSRSQAYKVTCSVRQSSAQNRKYTIKVEVPKGAWRSYLNMELTIPIFATNSDCELIVKAMQGLLKDGNPIPSAIAANSGIYGGSGSGAGSGSPAGGGAPGSGGGSTGAPPNLWAAQRYGRELRRMSDEFVDSFKKASQLHLPQVLADAVSRLVLGKFGDLTDNFSSPHARRKVLAGVVMTTGTDVKDAKVISVSTGTKCINGEYMSDRGLALNDCHAEIISRRSLLRFLYTQLELYLNNKDDQKRSIFQKSERGGFRLKENVQFHLYISTSPCGDARIFSPHEPILEEPAASGSGPGRLEEELRRRLSPGTGDRHPNRKARGQLRTKIESGQGTIPVRSNASIQTWDGVLQGERLLTMSCSDKIARWNVVGIQGSLLSIFVEPIYFSSIILGSLYHGDHLSRAMYQRISNIEDLPPLYTLNKPLLSGISNAEARQPGKAPNFSVNWTVGDSAIEVINATTGKDELGRASRLCKHALYCRWMRVHGKVPSHLLRSKITKPNVYHESKLAAKEYQAAKARLFTAFIKAGLGAWVEKPTEQDQYSLTGSGGTAEVQLQESGGGLVQPGGSLRLSCTASGVTISALNAMAMGWYRQAPGERRVMVAAVSERGNAMYRESVQGRFTVTRDFTNKMVSLQMDNLKPEDTAVYYCHVLEDRVDSFHDYWGQGTQVTVSSGAGSGASSNRELVVDFLSYKLSQKGYSWSQFSDVEENRTEAPEGTESEMETPSAINGNPSWHLADSPAVNGATGHSSSLDAREVIPMAAVKQALREAGDEFELRYRRAFSDLTSQLHITPGTAYQSFEQVVNELFRDGVNWGRIVAFFSFGGALCVESVDKEMQVLVSRIAAWMATYLNDHLEPWIQENGGWDTFVELYGNNGSSELIKENMHMKLYMEGTVDNHHFKCTSEGEGKPYEGTQTMRIKVVEGGPLPFAFDILATSFLYGSKTFINHTQGIPDFFKQSFPEGFTWERVTTYEDGGVLTATQDTSLQDGCLIYNVKIRGVNFTSNGPVMQKKTLGWEAFTETLYPADGGLEGRNDMALKLVGGSHLIANIKTTYRSKKPAKNLKMPGVYYVDYRLERIKEANNETYVEQHEVAVARYCDLPSKLGHKLN
**Q.** With B1 as the molecule, how does the “median relative fluorescence with both A-1331852 and EGFP(R96M)-AlfaTag, fold greater than AlfaTag alone” value ([3]; 500 nM of A-1331852) read?
**A.** ~4.6 ×

**Q.** And the “median relative fluorescence with AlfaTag and DMSO vs negative condition or A-1331852 treatment” value ([3]; one-way ANOVA)?
**A.** significantly higher
